The Human Domainome abundance scans (Beltran et al. 2025)
± gives the uncertainty stated by the source.

B1: POU domain, class 6, transcription factor 2, residues 609 to 663; numbered along this chain, P78424 (parent)
chain: KRRTSFTPQALEILNAHFEKNTHPSGQEMTEIAEKLNYDREVVRVWFCNKRQALK

Variants of: B1
Assay: abundance fitness (aPCA) (normalised: wild type 0, dead -1); higher = more abundant; growth selection in yeast, the domain comes from the species named
Conditions: Homo sapiens
For KRRTSFTPQALEILNAHFEKNTHPSGQEMTEIAETLNYDREVVRVWFCNKRQALK [K35T], the abundance fitness was 0.071 ± 0.17.
Variant KRRTSFTPQALEILNAHFEKNTHPSGQEMTEIAEKRNYDREVVRVWFCNKRQALK [L36R] has an abundance fitness of -0.967 ± 0.19.
With KRRTSFTPQALEILNAHFEKNTHPSGQEMTEIAEKANYDREVVRVWFCNKRQALK [L36A] the abundance fitness was -0.094 ± 0.18.
For KRRTSFTPQALEILNAHFEKNTHPSGQEMTEIAEKWNYDREVVRVWFCNKRQALK [L36W], the abundance fitness was -0.642 ± 0.16.
KRRTSFTPQALEILNAHFEKNTHPSGQEMTEIAEKLNYMREVVRVWFCNKRQALK [D39M] gave an abundance fitness of -0.483 ± 0.13.
KRRTSFTPQALEILNAHFEKNTHPSGQEMTEIAEKLNYSREVVRVWFCNKRQALK [D39S] gave an abundance fitness of -0.052 ± 0.053.
For KRRTSFTPQALEILNAHFEKNTHPSGQEMTEIAEKLNYIREVVRVWFCNKRQALK [D39I], the abundance fitness was -0.597 ± 0.079.
Variant KRRTSFTPQALEILNAHFEKNTHPSGQEMTEDAEKLNYDREVVRVWFCNKRQALK [I32D] has an abundance fitness of -1.16 ± 0.39.
KRRTSFTPQALEILNAHFEKNTHPSGQEMTERAEKLNYDREVVRVWFCNKRQALK [I32R] showed an abundance fitness of -0.958 ± 0.26.
KRRTSFTPQALEILNAHFEKITHPSGQEMTEIAEKLNYDREVVRVWFCNKRQALK [N21I] showed an abundance fitness of -0.351 ± 0.18.
KRRTSFTPQALEILNAHFEKNYHPSGQEMTEIAEKLNYDREVVRVWFCNKRQALK [T22Y] gave an abundance fitness of -0.201 ± 0.13.
With KRRTSFTPQALEILNAHFEKNQHPSGQEMTEIAEKLNYDREVVRVWFCNKRQALK [T22Q] the abundance fitness was 0.084 ± 0.14.
KRRTSFTPQFLEILNAHFEKNTHPSGQEMTEIAEKLNYDREVVRVWFCNKRQALK [A10F] gave an abundance fitness of -0.538 ± 0.22.
Variant KRRTSFTPQYLEILNAHFEKNTHPSGQEMTEIAEKLNYDREVVRVWFCNKRQALK [A10Y] has an abundance fitness of -0.76 ± 0.29.
With KRRTSFTPQALEILNAHFEKNTHPSGQEMTEIAEKLNYDREVVPVWFCNKRQALK [R44P] the abundance fitness was -0.421 ± 0.1.
With KRRTSFTPQALEILNAHFEKNTHPSGQEMTEIAEKLNYDREVVVVWFCNKRQALK [R44V] the abundance fitness was 0.034 ± 0.083.
For KRRTSFTPQALEILNAHFEKNTHPSGQEMTEIAEKLNYDREVVIVWFCNKRQALK [R44I], the abundance fitness was -0.152 ± 0.13.
KRRTSFTPQALEILNAHFEKNTHPSGQEMTEIHEKLNYDREVVRVWFCNKRQALK [A33H] gave an abundance fitness of -0.881 ± 0.34.
KRRTSFTPQALEILNAHFEKNTHPSGQEMTEIAEKLNYDREVVRVWFQNKRQALK [C48Q] gave an abundance fitness of 0.279 ± 0.38.
KRRTSFTPQALEILNAHFEKNTHPSGQEMTEIAEKLNYDREVVRVWFGNKRQALK [C48G] gave an abundance fitness of -0.008 ± 0.12.
KRRTSFTPQALEILNAHFEKNTHPSGQEMTEIAEKLNYDREVVRVWFFNKRQALK [C48F] gave an abundance fitness of -0.5 ± 0.43.
With KRRTSFTPQALEILNEHFEKNTHPSGQEMTEIAEKLNYDREVVRVWFCNKRQALK [A16E] the abundance fitness was -0.002 ± 0.076.
KRRTSFTPQALEILNWHFEKNTHPSGQEMTEIAEKLNYDREVVRVWFCNKRQALK [A16W] showed an abundance fitness of -0.164 ± 0.065.
In the case of KRRTSFTPQALEILNAHFEKNTHPSGQEMTEIAEKLNYDREVVRVWNCNKRQALK [F47N], the abundance fitness is reported as -1.08 ± 0.19.
Variant KRRTSFTPQALEILNAHFWKNTHPSGQEMTEIAEKLNYDREVVRVWFCNKRQALK [E19W] has an abundance fitness of -0.127 ± 0.1.
KRRTSFTPQALEILNAHFIKNTHPSGQEMTEIAEKLNYDREVVRVWFCNKRQALK [E19I] gave an abundance fitness of 0.032 ± 0.1.
KRRTLFTPQALEILNAHFEKNTHPSGQEMTEIAEKLNYDREVVRVWFCNKRQALK [S5L] gave an abundance fitness of -0.06 ± 0.071.
KRRTDFTPQALEILNAHFEKNTHPSGQEMTEIAEKLNYDREVVRVWFCNKRQALK [S5D] gave an abundance fitness of -0.063 ± 0.097.
KRRTSFTPQALEILNAHFEKNTHPSGQEMTEIAEKLNYDRHVVRVWFCNKRQALK [E41H] gave an abundance fitness of -0.29 ± 0.2.
KRRTSFTPQALEILNAHFEKNTHPSGQEMTEIAEKLNYDRPVVRVWFCNKRQALK [E41P] showed an abundance fitness of -0.879 ± 0.14.
Variant KRRTSFTPQALEILNAHFEKNTHPSGQEMTEIAEKLNYDRTVVRVWFCNKRQALK [E41T] has an abundance fitness of -0.082 ± 0.093.
KRRTSFSPQALEILNAHFEKNTHPSGQEMTEIAEKLNYDREVVRVWFCNKRQALK [T7S] showed an abundance fitness of -0.042 ± 0.09.
Variant KRRTSFAPQALEILNAHFEKNTHPSGQEMTEIAEKLNYDREVVRVWFCNKRQALK [T7A] has an abundance fitness of -0.2 ± 0.18.
For KRRTSFTPQALEILNAHFEKNTHPSGQEMTGIAEKLNYDREVVRVWFCNKRQALK [E31G], the abundance fitness was -0.041 ± 0.095.
KRRTSFTPQALEILNAHFEKNTHPSGQEMTRIAEKLNYDREVVRVWFCNKRQALK [E31R] showed an abundance fitness of -0.028 ± 0.15.
KRRTSFTPQALEILNAHFEKNTHPSGQEMTEIAEKLNYDREVVRVWFCEKRQALK [N49E] gave an abundance fitness of 0.177 ± 0.16.
KRRTSFTPQALEILNAHFEKNTHPSGQEMTEIAEKLNYDREVVRVWFCQKRQALK [N49Q] showed an abundance fitness of 0.03 ± 0.24.
Work on KRRTSFTPQALEILNAHFEKNTHPSGQEMTEIAEKLNYDREVVRVWFCNKRQFLK [A53F] yielded an abundance fitness of -0.267 ± 0.16.
Variant KRRTSFTPQALEILNALFEKNTHPSGQEMTEIAEKLNYDREVVRVWFCNKRQALK [H17L] has an abundance fitness of -0.008 ± 0.058.
With KRRTSFTPQALEILNASFEKNTHPSGQEMTEIAEKLNYDREVVRVWFCNKRQALK [H17S] the abundance fitness was -0.065 ± 0.063.
KRRTSFTPQALEILNAHFEKNTFPSGQEMTEIAEKLNYDREVVRVWFCNKRQALK [H23F] gave an abundance fitness of -0.096 ± 0.14.
For KRRTSFTPQALEILNAHFEKNTNPSGQEMTEIAEKLNYDREVVRVWFCNKRQALK [H23N], the abundance fitness was -0.027 ± 0.16.
With KRRTSFTPQALEILNAHFEKNTKPSGQEMTEIAEKLNYDREVVRVWFCNKRQALK [H23K] the abundance fitness was -0.034 ± 0.12.
KRRTSFTPQALEILNAHFEKNTHPSGQEMTEIAEKLNYDREVVRVWFCNKRCALK [Q52C] gave an abundance fitness of -0.126 ± 0.15.
With KRRTSFTPQALEILNAHFEKNTHPSGQEMTEIAEKLNYDREVVRVWFCNKRTALK [Q52T] the abundance fitness was -0.059 ± 0.12.
With KRRTSFTPQALEILNAHFEKNTHPSGQEMWEIAEKLNYDREVVRVWFCNKRQALK [T30W] the abundance fitness was -0.393 ± 0.16.
KRRTSFTPQALEILNAHFEGNTHPSGQEMTEIAEKLNYDREVVRVWFCNKRQALK [K20G] showed an abundance fitness of -0.129 ± 0.061.
KRRTSFTPQALEILNAHFELNTHPSGQEMTEIAEKLNYDREVVRVWFCNKRQALK [K20L] showed an abundance fitness of -0.144 ± 0.074.
